Reference: PMC4650419 (Cell Research, 2015)
Numbering of substitutions follows the chain as printed.

B1: mouse monoclonal antibody 2E6 (IgG1) (antibody, V domains shown)
VH: QVQLKGSGPGLVAPSQSLSITCTVSGFSLTGYGVNWVRQPPGKGLEWLGMIWGDGSTDYNSALKSRLSISKDNSKSQVFLKMNSLQTDDTARYYCARVGDYGDYFDYWGQGTTLTVSS
VL: DIQMTQSPASLSASVGETVTITCRASENIYSYLAWYQQKQGKSPQLLVYNAKTLAEGVPSRFSGSGSGTQFSLKINSLQPEDFGSYYCQHHYGTPWFGGGTKLEIK
B2: mouse monoclonal antibody 4C2 (IgG1) (antibody, V domains shown)
VH: DVKLVESGGGLVKPGGSLKLSCAASGFTFSSYTMSWVRQTPEKRLEWVATISSGGSYTYYPDSVKGRFTISRDNAKNTLYLQMSSLKSEDTAMYYCTRDGNDYDYWGQGTTLTVSS
VL: DIQMTQTTSSLSASLGDRVTISCRASQDISNYLNWYQQKPDGTVKLLIYYTSRLHSGVPSRFSGSGSGTDYSLTISNLEQEDIATYFCQQGNTLPRTFGGGTKLEIK
B3: humanized 4C2 (4C2h), full-length antibody (antibody, V domains shown)
VH: B2 VH with D1Q, K3Q, V5Q, E42D, T97A, T111M, L112V
VL: DIQLTQSPSSLSASIGDRVTITCQASQDISNYLNWYQQRPGQAPKLLIYYTSRLHSGVPSRFSGRGSGTSFTIAINSFQAEDIGTYFCQQGNTLPRTFGGGTRVEIK

Molecular target: MERS-CoV spike receptor-binding domain (spike residues 367-606), hexa-His tagged (MERS-CoV, isolate EMC/2012 (GenBank …))
Test: SPR

| Binder | Kd |
| --- | --- |
| B1 | 60.3 nM |
| B2 | 162 nM |
| B3 | ~217 nM |
